Values of other authors as cited in article PMC3583350.

Target: FcεRIα ECD (Homo sapiens) (UniProt P12319)
Sequence of UniProt P12319 (P12319 26-205): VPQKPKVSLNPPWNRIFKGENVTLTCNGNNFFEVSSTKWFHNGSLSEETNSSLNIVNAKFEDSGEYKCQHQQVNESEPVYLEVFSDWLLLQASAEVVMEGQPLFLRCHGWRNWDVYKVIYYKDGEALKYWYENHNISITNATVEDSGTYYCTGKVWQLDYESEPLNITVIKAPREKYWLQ

Substance: IgE-Fc Fc (from UniProt P01854)
- Kd: 1 nM
